Test system: Escherichia coli TOP10
Assay: shrunken log2 fold change of peptide-encoding DNA abundance (4.5 h post-induction vs induction); higher = less antimicrobial activity (less host growth inhibition)
Conditions: time post-induction: 4.5 h; library: site-saturation at positions 5, 18, 19, 20
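Note: peptides expressed intracellularly from a pBAD plasmid library in pooled LB shake-flask culture, induced with 0.3% L-arabinose, DNA abundance read by NGS, three biological replicates, DESeq2 with apeglm shrinkage.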

Sequence | shrunken log2 fold change
RRIRSRPPRLPRPRPRPTNMPRP | -0.465
RRIRCRPPRLPRPRPRPNEFPRP | 0.159
RRIRKRPPRLPRPRPRPIISPRP | -0.132
RRIRDRPPRLPRPRPRPAITPRP | 0.284
RRIRNRPPRLPRPRPRPRHIPRP | -0.0233
RRIRFRPPRLPRPRPRPSKLPRP | -0.42
RRIRCRPPRLPRPRPRPTLDPRP | 0.337
RRIRFRPPRLPRPRPRPCQWPRP | 0.0155
RRIRSRPPRLPRPRPRPEAIPRP | 0.748
RRIRMRPPRLPRPRPRPVGAPRP | 1.34
RRIRWRPPRLPRPRPRPETLPRP | 0.0224
RRIRLRPPRLPRPRPRPKRPPRP | -0.0353
RRIRFRPPRLPRPRPRPVWEPRP | 0.00583
RRIRHRPPRLPRPRPRPSTIPRP | -0.0522
RRIRFRPPRLPRPRPRPCIFPRP | -0.361
RRIRWRPPRLPRPRPRPGCYPRP | -0.0343
RRIRMRPPRLPRPRPRPYKEPRP | 0.0136
RRIRARPPRLPRPRPRPMLRPRP | 0.155
RRIRDRPPRLPRPRPRPNTQPRP | 0.0704
RRIRIRPPRLPRPRPRPRANPRP | 0.0386
RRIRTRPPRLPRPRPRPYQQPRP | 0.0675
RRIRSRPPRLPRPRPRPMTVPRP | -0.0124

Sequence | shrunken log2 fold change
RRIRMRPPRLPRPRPRPVPPPRP | 0.901
RRIRPRPPRLPRPRPRPYSMPRP | -1.43
RRIRFRPPRLPRPRPRPTVDPRP | -0.175
RRIRARPPRLPRPRPRPIEHPRP | 0.126
RRIRVRPPRLPRPRPRPERDPRP | -0.15
RRIRARPPRLPRPRPRPIMNPRP | -0.151
RRIRDRPPRLPRPRPRPHFHPRP | -0.0477
RRIRTRPPRLPRPRPRPRVQPRP | -0.2
RRIRFRPPRLPRPRPRPMQPPRP | 0.287
RRIRMRPPRLPRPRPRPDTWPRP | 0.34
RRIRSRPPRLPRPRPRPANWPRP | 0.343
RRIRSRPPRLPRPRPRPIEPPRP | 0.0268
RRIRHRPPRLPRPRPRPKENPRP | -0.0597
RRIRCRPPRLPRPRPRPYCVPRP | -0.517
RRIRCRPPRLPRPRPRPKPGPRP | 0.503
RRIRGRPPRLPRPRPRPGPQPRP | 0.719
RRIRIRPPRLPRPRPRPKPDPRP | 0.528
RRIRPRPPRLPRPRPRPIDSPRP | -0.018
RRIRSRPPRLPRPRPRPWTDPRP | -0.12
RRIRERPPRLPRPRPRPRSHPRP | -0.349
RRIRVRPPRLPRPRPRPINRPRP | -0.239
RRIRHRPPRLPRPRPRPGNGPRP | 0.278

Sequence | shrunken log2 fold change
RRIRIRPPRLPRPRPRPAMVPRP | -0.547
RRIRKRPPRLPRPRPRPMVFPRP | -0.0194
RRIRPRPPRLPRPRPRPQRSPRP | 0.265
RRIRNRPPRLPRPRPRPDGMPRP | 0.0319
RRIRWRPPRLPRPRPRPFFNPRP | -0.267
RRIRSRPPRLPRPRPRPVFHPRP | -0.026
RRIRHRPPRLPRPRPRPRSYPRP | -0.12
RRIRKRPPRLPRPRPRPDGVPRP | 0.154
RRIRGRPPRLPRPRPRPAKWPRP | 0.747
RRIRVRPPRLPRPRPRPVRVPRP | 0.905
RRIRVRPPRLPRPRPRPKQKPRP | -0.0521
RRIRKRPPRLPRPRPRPYIFPRP | -0.129
RRIRQRPPRLPRPRPRPETLPRP | -0.0597
RRIRSRPPRLPRPRPRPSRDPRP | -0.0156
RRIRRRPPRLPRPRPRPMNNPRP | -0.137
RRIRWRPPRLPRPRPRPCYYPRP | -0.0954
RRIRERPPRLPRPRPRPIKKPRP | 0.00021
RRIRARPPRLPRPRPRPEEFPRP | 0.00844
RRIRCRPPRLPRPRPRPKYLPRP | -0.34
RRIRHRPPRLPRPRPRPKTRPRP | -0.0214
RRIRMRPPRLPRPRPRPVFWPRP | 0.884
RRIRYRPPRLPRPRPRPCPGPRP | -0.0926

Sequence | shrunken log2 fold change
RRIRVRPPRLPRPRPRPPEGPRP | 0.582
RRIRKRPPRLPRPRPRPSFLPRP | 0.104
RRIRNRPPRLPRPRPRPFHNPRP | -0.12
RRIRKRPPRLPRPRPRPSPQPRP | 0.219
RRIRKRPPRLPRPRPRPLCYPRP | -0.213
RRIRLRPPRLPRPRPRPAVLPRP | -0.0831
RRIRDRPPRLPRPRPRPHTGPRP | -0.0359
RRIRKRPPRLPRPRPRPNVHPRP | 0.273
RRIRTRPPRLPRPRPRPRPRPRP | 0.81
RRIRNRPPRLPRPRPRPEMWPRP | -0.0348
RRIRIRPPRLPRPRPRPEEKPRP | 0.461
RRIRPRPPRLPRPRPRPLAGPRP | 0.3
RRIRFRPPRLPRPRPRPQVTPRP | -0.367
RRIRCRPPRLPRPRPRPYEEPRP | -0.255
RRIRHRPPRLPRPRPRPCWFPRP | -0.499
RRIRRRPPRLPRPRPRPIVRPRP | 0.117
RRIRPRPPRLPRPRPRPQRAPRP | 0.381
RRIRIRPPRLPRPRPRPSYYPRP | -1.34
RRIRVRPPRLPRPRPRPAQKPRP | 0.135
RRIRYRPPRLPRPRPRPPCSPRP | -0.957
RRIRGRPPRLPRPRPRPRYRPRP | 0.0699
RRIRERPPRLPRPRPRPKMHPRP | -0.134

Sequence | shrunken log2 fold change
RRIRTRPPRLPRPRPRPQAMPRP | 0.00573
RRIRGRPPRLPRPRPRPSQDPRP | 0.296
RRIRLRPPRLPRPRPRPIDQPRP | 0.281
RRIRDRPPRLPRPRPRPETSPRP | -0.0166
RRIRRRPPRLPRPRPRPFGWPRP | 0.271
RRIRARPPRLPRPRPRPFRTPRP | 0.12
RRIRHRPPRLPRPRPRPQDVPRP | 0.0527
RRIRFRPPRLPRPRPRPHLEPRP | -0.425
RRIRFRPPRLPRPRPRPDKIPRP | -0.0546
RRIRHRPPRLPRPRPRPCNCPRP | 0.0668
RRIRKRPPRLPRPRPRPEDGPRP | 1.9
RRIRGRPPRLPRPRPRPQRKPRP | 0.471
RRIRPRPPRLPRPRPRPMDSPRP | -0.0149
RRIRIRPPRLPRPRPRPYAHPRP | -0.184
RRIRHRPPRLPRPRPRPRQDPRP | -0.189
RRIRLRPPRLPRPRPRPGVSPRP | -0.161
RRIRSRPPRLPRPRPRPFHFPRP | -0.308
RRIRDRPPRLPRPRPRPLGEPRP | 0.147
RRIRMRPPRLPRPRPRPKHLPRP | 0.142
RRIRRRPPRLPRPRPRPPVHPRP | 0.197
RRIRSRPPRLPRPRPRPQNVPRP | -0.209
